Test results from patent publication US12091399B2, “Phenyltetrazole derivatives as plasma kallikrein inhibitors” (Boehringer Ingelheim International GmbH, priority 2018, dated 2024).

Tests used:
[1] = system: Cc1cc(=O)oc2cc(NC(=O)[C@H](CCCNC(=N)N)NC(=O)[C@H](Cc3ccccc3)NC(=O)[C@@H]3CCCN3)ccc12; assay: Inhibition of PKK (Ki), kinetic assay; format: biochemical, human; conditions: other: substrate KM, enzyme PKK; pH 7.8; 24.0 °C
Procedure: (§1) The ability of compounds of formula (I) to inhibit plasma kallikrein (PKK), Factor XIIa (FXIIa), Factor XIa (FXIa), Factor Xa (FXa), Factor IIa (alpha-thrombin; FIIa), plasmin, trypsin, tissue kallikrein 1 (TK1), Factor Vila (FVIIa), or FVIIa complexed with Tissue Factor, phospholipids and CaCl2) (FVIIa/TF/PL/CaCl2) was determined using the following biochemical assays in assay buffer (100 mM Tris, 150 mM NaCL, adjusted to a pH of 7.8 with HCl, and containing 0.1% (w/v) BSA and 0.05% (v/v) Tween20) in the presence of 1% (v/v) DMSO:
(§2) Human PKK (1.78 nM or 0.025 U/mL; Enzyme Research Laboratories) was incubated at 24° C. with 0.25 mM fluorogenic substrate H-Pro-Phe-Arg-AMC (11295 from Bachem) and various concentrations of the test compound in assay buffer. Measurements were performed in a kinetic interval every 2nd minute for 16 min using a Spectramax M5 (Molecular Devices) with the following settings of the wavelength excitation of 350 nm and wavelength emission of 450 nm. The number of the compound corresponds to the number of the Example in the experimental section.
The pIC50 values were then fitted using a four-parametric fitting procedure using GraphPad Prism (version 6; GraphPad Software, Inc.). […]

[2] = system: Cc1cc(=O)oc2cc(NC(=O)[C@H](CCCNC(=N)N)NC(=O)[C@H](C)NC(=O)[C@H](CCC(=O)OCc3ccccc3)NC(=O)OC(C)(C)C)ccc12; assay: Inhibition of FXIa (Ki); format: biochemical, human; conditions: other: substrate KM, enzyme FXIa; pH 7.8; 24.0 °C
Procedure: as §1
as §2, with “FXIa (0.5” for “PKK (1.78”, “0.016” for “0.025”, “Boc-Glu(OBzl)-Ala-Arg-AMC.HCl (11575” for “H-Pro-Phe-Arg-AMC (11295”, “nm.” for “nm. The number of the compound corresponds to the number of the Example in the experimental section.”
The pIC50 values were then fitted using a four-parametric fitting procedure using GraphPad Prism (version 6; GraphPad Software, Inc.). Respective Ki values were obtained by correction of the IC50 values for the respective KM value of the used substrate (see Table A for the obtained KM values of the used substrates) using the following formula: […]

Human PKK (Homo sapiens), sequence (chain, as listed by the source): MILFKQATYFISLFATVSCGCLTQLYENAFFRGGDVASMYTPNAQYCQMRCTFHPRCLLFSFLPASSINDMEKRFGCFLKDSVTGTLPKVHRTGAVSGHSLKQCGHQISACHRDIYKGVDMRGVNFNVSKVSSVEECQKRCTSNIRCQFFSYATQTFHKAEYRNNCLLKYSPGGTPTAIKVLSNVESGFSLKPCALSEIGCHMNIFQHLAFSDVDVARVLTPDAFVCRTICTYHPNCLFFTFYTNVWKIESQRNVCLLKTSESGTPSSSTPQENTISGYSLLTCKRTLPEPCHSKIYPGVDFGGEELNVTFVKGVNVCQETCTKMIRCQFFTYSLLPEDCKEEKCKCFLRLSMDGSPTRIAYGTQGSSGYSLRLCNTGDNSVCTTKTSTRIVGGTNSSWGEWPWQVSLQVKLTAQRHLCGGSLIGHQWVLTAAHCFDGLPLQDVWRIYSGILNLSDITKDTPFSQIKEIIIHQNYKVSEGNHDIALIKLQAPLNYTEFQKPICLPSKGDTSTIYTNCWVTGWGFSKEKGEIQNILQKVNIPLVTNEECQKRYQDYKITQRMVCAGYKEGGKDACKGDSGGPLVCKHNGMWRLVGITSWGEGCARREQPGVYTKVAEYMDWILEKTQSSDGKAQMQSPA

Row | Substance | Km [1] [µM] | Km [2] [µM]
1 | Human PKK (Homo sapiens) | 160 | 
2 | Human FXIa (Homo sapiens) |  | 290
